Measurements from article PMC8427864, “Optimizing operational parameters for the enzymatic production of furandicarboxylic acid building block” (Microbial Cell Factories, 2021).

Key:
[1] = molecular target: T1, HMFO (hydroxymethylfurfural oxidase) WT (Methylovorus sp. MP688, UniProt E4QP00); assay: UV-visible spectra of folded enzyme and heat-released flavin; format: binding; conditions: flavin released at 95 °C, 5 min
T1 construct: gene MPQ_0130; synthetic gene in pET23b(+), E. coli BL21(DE3)pLysS, purified by two anion-exchange steps; FAD-containing; no tag mentioned
T1 sequence (E4QP00 1-531): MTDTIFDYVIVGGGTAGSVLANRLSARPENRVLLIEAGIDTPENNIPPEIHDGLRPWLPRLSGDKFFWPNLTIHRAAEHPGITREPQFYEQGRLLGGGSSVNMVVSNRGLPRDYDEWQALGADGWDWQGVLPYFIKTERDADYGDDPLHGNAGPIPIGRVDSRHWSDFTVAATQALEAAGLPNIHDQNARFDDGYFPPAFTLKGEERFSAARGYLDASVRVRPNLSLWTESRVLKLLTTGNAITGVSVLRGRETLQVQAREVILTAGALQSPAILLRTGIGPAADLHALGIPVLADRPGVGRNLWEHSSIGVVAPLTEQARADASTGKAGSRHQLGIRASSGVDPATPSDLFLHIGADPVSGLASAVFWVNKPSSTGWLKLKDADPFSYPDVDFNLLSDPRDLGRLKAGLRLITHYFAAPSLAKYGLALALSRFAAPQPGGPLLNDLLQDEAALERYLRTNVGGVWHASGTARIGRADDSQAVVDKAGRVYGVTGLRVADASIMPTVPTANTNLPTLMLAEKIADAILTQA

O=Cc1ccc(CO)o1 [2] = system: T2, O=Cc1ccc(CO)o1; assay: AmplexRed/HRP-coupled H2O2 assay, continuous steady state; format: biochemical, Methylovorus sp. MP688; conditions: 50 mM Tris/HCl, pH 7.0, air oxygen as co-substrate, 8BxHMFO (Methods print G356K)
T2 construct: synthetic gene in pET23b(+), E. coli BL21(DE3)pLysS, purified by two anion-exchange steps; FAD-containing; no tag mentioned

O=Cc1ccc(C=O)o1 = system: T3, O=Cc1ccc(C=O)o1; assay: as above; format: biochemical, Methylovorus sp. MP688; conditions: 50 mM Tris/HCl, pH 7.0, air oxygen as co-substrate
T3 construct: synthetic gene in pET23b(+), E. coli BL21(DE3)pLysS, purified by two anion-exchange steps; FAD-containing; no tag mentioned
From the text: (§1) AmplexRed/HRP-coupled H2O2 assay, continuous steady state on HMFO (hydroxymethylfurfural oxidase) WT | The saturation profiles for all the variants discarded any inhibitory effect by these two substrates

O=Cc1ccc(CO)o1 [3] = system: T2, O=Cc1ccc(CO)o1; assay: as above; format: biochemical, Methylovorus sp. MP688; conditions: 50 mM Tris/HCl, pH 7.0, air oxygen as co-substrate
From the text: as §1

| Molecule | UV-visible spectra of folded enzyme and heat-released flavin [1] | Km (O=Cc1ccc(CO)o1 [2]) | kcat (O=Cc1ccc(CO)o1 [2]) | Km (O=Cc1ccc(C=O)o1) | kcat (O=Cc1ccc(C=O)o1) | Km (O=Cc1ccc(CO)o1 [3]) | kcat (O=Cc1ccc(CO)o1 [3]) |
| --- | --- | --- | --- | --- | --- | --- | --- |
| Cc1cc2nc3c(=O)[nH]c(=O)nc-3n(C[C@H](O)[C@H](O)[C@H](O)COP(=O)(O)OP(=O)(O)OC[C@H]3O[C@@H](n4cnc5c(N)ncnc54)[C@H](O)[C@@H]3O)c2cc1C [FAD] | The spectra of the folded enzymes and the free flavin, obtained by heat treatment |  |  |  |  |  |  |
| HMFO (hydroxymethylfurfural oxidase) WT (Methylovorus sp. MP688; A419Y/A435E/G356H/H74Y/I73V/T414K/V367R/W466F) |  | 17.1 ± 1.6 mM | 0.09 ± 0.0033 s⁻¹ |  |  |  |  |
| HMFO (hydroxymethylfurfural oxidase) WT (Methylovorus sp. MP688; V367R) |  |  |  | 1.1 ± 0.2 mM | 0.0367 ± 0.0017 s⁻¹ | 4.2 ± 0.3 mM | 0.747 ± 0.0167 s⁻¹ |
| HMFO (hydroxymethylfurfural oxidase) WT (Methylovorus sp. MP688; V367R/W466F) |  |  |  | 4.9 ± 0.5 mM | 0.025 ± 0.00067 s⁻¹ | 23.1 ± 2.8 mM | 0.0567 ± 0.0033 s⁻¹ |
| HMFO (hydroxymethylfurfural oxidase) WT (Methylovorus sp. MP688; W466F) |  |  |  | 1.8 ± 0.3 mM | 0.005 ± 0.00017 s⁻¹ | 6.4 ± 0.5 mM | 0.0233 ± 0.0005 s⁻¹ |
